This is an account of results in publication PMC9638925 (Nucleic Acids Research, 2022).

This assay deals with T1, USP15 (275–981) (human, UniProt Q9Y4E8 275-981).
T1 sequence: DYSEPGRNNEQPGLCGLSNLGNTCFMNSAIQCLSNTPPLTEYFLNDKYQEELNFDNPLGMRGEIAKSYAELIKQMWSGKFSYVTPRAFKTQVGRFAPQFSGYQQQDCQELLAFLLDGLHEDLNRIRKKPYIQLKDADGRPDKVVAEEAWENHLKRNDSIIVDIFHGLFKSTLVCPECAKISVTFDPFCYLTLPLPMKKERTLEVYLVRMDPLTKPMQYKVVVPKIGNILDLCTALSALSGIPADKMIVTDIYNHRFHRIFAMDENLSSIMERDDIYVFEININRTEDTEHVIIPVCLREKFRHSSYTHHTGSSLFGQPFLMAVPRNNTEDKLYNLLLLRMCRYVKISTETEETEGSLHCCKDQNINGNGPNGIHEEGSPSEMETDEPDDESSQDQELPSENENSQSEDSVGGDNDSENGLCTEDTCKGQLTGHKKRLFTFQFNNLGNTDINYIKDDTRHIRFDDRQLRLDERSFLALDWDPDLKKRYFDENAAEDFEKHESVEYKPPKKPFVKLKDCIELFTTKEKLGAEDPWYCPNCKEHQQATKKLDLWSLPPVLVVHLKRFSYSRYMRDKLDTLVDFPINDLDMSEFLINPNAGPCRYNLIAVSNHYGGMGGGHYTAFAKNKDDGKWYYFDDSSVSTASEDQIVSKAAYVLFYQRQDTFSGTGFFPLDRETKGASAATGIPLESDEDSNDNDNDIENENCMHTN
In words: pull-down.

B1: GST–cGAS (161–522) (domain or fragment)
chain: GASKLRAVLEKLKLSRDDISTAAGMVKGVVDHLLLRLKCDSAFRGVGLLNTGSYYEHVKISAPNEFDVMFKLEVPRIQLEEYSNTRAYYFVKFKRNPKENPLSQFLEGEILSASKMLSKFRKIIKEEINDIKDTDVIMKRKRGGSPAVTLLISEKISVDITLALESKSSWPASTQEGLRIQNWLSAKVRKQLRLKPFYLVPKHAKEGNGFQEETWRLSFSHIEKEILNNHGKSKTCCENKEEKCCRKDCLKLMKYLLEQLKERFKDKKHLDKFSSYHVKTAFFHVCTQNPQDSQWDRKDLGLCFDNCVTYFLQCLRTEKLENYFIPEFNLFSSNLIDKRSKEFLTKQIEYERNNEFPVFDEF
B1: the binding result is reported as “binds”.
